Source: patent US20200157194A1 (Regeneron, published 2020)
Each block holds one binder with its values, some of them ahead of it.

Columns and labels:
[1] = target: T1, recombinant human GREM1 (hGREM1-His; C-terminal 10His tagged, R&D, #5190-GR) (human, UniProt O60565 25-184, limits assumed); assay: cell-based or functional assay
T1 sequence: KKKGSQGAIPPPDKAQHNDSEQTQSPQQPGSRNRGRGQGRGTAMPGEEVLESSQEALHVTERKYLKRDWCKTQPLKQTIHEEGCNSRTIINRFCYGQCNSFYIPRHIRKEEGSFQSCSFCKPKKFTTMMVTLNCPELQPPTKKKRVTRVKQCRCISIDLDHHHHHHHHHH

[2] = target: T1, recombinant human GREM1 (hGREM1-His; …); assay: cell-based or functional assay; remark: listed apart in the source
[3] = target: T1, recombinant human GREM1 (hGREM1-His; …); assay: BLI Octet, mAb captured, 100 nM GREM1;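 note: octet Red96 biolayer interferometry at 25 °C in pH 7.4 HEPES saline buffer, antibodies held on anti-human IgG Fc capture biosensors, then exposed to GREM1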
[4] = target: T1, recombinant human GREM1 (hGREM1-His; …); assay: BLI Octet, mAb captured, 100 nM GREM1 + 5 uM heparin;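 note: octet Red96 biolayer interferometry at 25 °C, antibodies captured on anti-human IgG Fc biosensors, pH 7.4 HEPES buffer with 0.1 mg/mL BSA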
[5] = target: T2, human GREM1 (hGREM1-His; SEQ ID NO: 595) (human, UniProt O60565 25-184); assay: SPR, Biacore T200, 25 C, mAb captured, hGREM1-His injected;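 note: Heparin-supplemented HBS-EP+ used as running buffer, association and dissociation phases followed, Kd computed as koff divided by kon and half-life derived from koff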
T2 construct: also called biotin-hGREM1-His; recombinant human GREM1 protein
T2 sequence: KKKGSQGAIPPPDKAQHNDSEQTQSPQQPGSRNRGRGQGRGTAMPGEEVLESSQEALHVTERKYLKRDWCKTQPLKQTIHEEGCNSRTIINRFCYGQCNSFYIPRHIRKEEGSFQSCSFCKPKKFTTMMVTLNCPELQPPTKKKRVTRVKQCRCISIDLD

[6] = target: T2, human GREM1 (hGREM1-His; SEQ ID NO: 595); assay: SPR, Biacore T200, 37 C, mAb captured, hGREM1-His injected;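 note: HBS-EP running buffer containing heparin, association and dissociation phases tracked, KD computed as koff over kon and half-life derived from koff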
[7] = target: T1, recombinant human GREM1 (hGREM1-His; …); assay: BLI Octet, mAb captured, 100 nM GREM1 without vs with 5 uM heparin;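 note: octet Red96 biolayer interferometry at 25 °C, antibodies captured on anti-human IgG Fc biosensors, association of GREM1 measured with versus without heparin in HEPES-buffered saline, pH 7.4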
[8] = target: T2, human GREM1 (hGREM1-His; SEQ ID NO: 595); assay: competition ELISA, biotin-hGREM1-His (100 pM) binding to coated hBMP4

B1: H4H2926N (antibody, human IgG4, V domains shown)
VH: EVQLVESGGGLVQTGRSLRLSCAASGFTFDDYAMNWVRQAPGKGLEWVSGISWNSGNIGYADSVKGRFTISRDNAKNSLYLQMNSLRAEDTALYYCVKYIGQQLVQDYFDYWGQGTLVTVSS
VL: DIQMTQSPSSLSASVGDRVTITCQASQDITNYLNWYQQRPGKAPKLLIYDAFNLERGVPSRFSGSGYGTYFTFTISSLQPEDIAIYYCQQYDNLPLTFGGGTKVEIE
notes: H4H prefix = human IgG4 Fc
IC50 [M], inhibition of hGREM1-His, W-20-17/BRE-luc luciferase (100 pM hBMP4, 10 nM hGREM1-His) [1]: 1.2e-09 M
hGREM1-His Inhibition IC50, M; W-20-17 cell differentiation assay (alkaline phosphatase) [2]: 13 nM
Binding Signal with 30 sec Association [3]: 0.23 nm
Binding Signal with 300 sec Association [3]: 0.49 nm
Binding Signal with 30 sec Association [4]: 0.07 nm
Binding Signal with 300 sec Association [4]: 0.42 nm
Kd [5]: 5.52 nM
koff [5]: 0.000502 s⁻¹
kon [5]: 91000 M⁻¹ s⁻¹
t1/2 [5]: 23 min
Kd [6]: 11.1 nM
koff [6]: 0.0014 s⁻¹
kon [6]: 126000 M⁻¹ s⁻¹
t1/2 [6]: 8 min
Reduction in Signal from Heparin at 30 sec [7]: 0.16 nm
Reduction in Signal from Heparin at 300 sec [7]: 0.07 nm
% blocked at maximum Ab tested (20 nM) [8]: 93%
IC50 [8]: 0.052 nM

B2: H4H2897N (antibody, human IgG4, V domains shown)
VH: QVQLVESGGGVVQPGRSLRLSCAASGFTFTNYGMHWVRQAPGKGLEWVAAISYDGTNKYYADSVKGRFTISRDDSKNTLCLQMNSLRAEDTAVYYCAKEGTGEGFSFDYWGQGTLVTVSS
VL: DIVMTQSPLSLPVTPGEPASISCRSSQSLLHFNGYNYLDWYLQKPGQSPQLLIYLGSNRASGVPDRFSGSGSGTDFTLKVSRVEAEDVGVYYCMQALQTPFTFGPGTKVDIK
notes: H4H prefix = human IgG4 Fc
IC50 [M], inhibition of hGREM1-His, W-20-17/BRE-luc luciferase (100 pM hBMP4, 10 nM hGREM1-His) [1]: 4.5e-10 M
hGREM1-His Inhibition IC50, M; W-20-17 cell differentiation assay (alkaline phosphatase) [2]: 18 nM
Binding Signal with 30 sec Association [3]: 0.2 nm
Binding Signal with 300 sec Association [3]: 0.68 nm
Binding Signal with 30 sec Association [4]: 0.01 nm
Binding Signal with 300 sec Association [4]: 0.26 nm
Kd [5]: 148 nM
koff [5]: 0.00041 s⁻¹
kon [5]: 2770 M⁻¹ s⁻¹
t1/2 [5]: 28 min
Kd [6]: 28.8 nM
koff [6]: 0.00202 s⁻¹
kon [6]: 70300 M⁻¹ s⁻¹
t1/2 [6]: 6 min
Reduction in Signal from Heparin at 30 sec [7]: 0.19 nm
Reduction in Signal from Heparin at 300 sec [7]: 0.42 nm
% blocked at maximum Ab tested (20 nM) [8]: 73%
IC50 [8]: 0.042 nM

B6: H4H6236P (antibody, human IgG4, V domains shown)
VH: QVQLVQSGAEVKKPGASVKVSCKVSGYTLTELSMHWVRQAPGKGLEWMGGFDPEDGETIYAQKFQGRVTMTEDTSTETAYMELSSLRSEDTAVYYCATDDYDILTDYPYNMDVWGQGTTVTVSS
VL: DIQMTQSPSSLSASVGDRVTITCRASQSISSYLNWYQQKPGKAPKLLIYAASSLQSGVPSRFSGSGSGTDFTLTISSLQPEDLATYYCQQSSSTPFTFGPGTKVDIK
notes: H4H prefix = human IgG4 Fc
IC50 [M], inhibition of hGREM1-His, W-20-17/BRE-luc luciferase (100 pM hBMP4, 10 nM hGREM1-His) [1]: 5.4e-10 M
hGREM1-His Inhibition IC50, M; W-20-17 cell differentiation assay (alkaline phosphatase) [2]: 3.9 nM
Binding Signal with 30 sec Association [3]: 0.33 nm
Binding Signal with 300 sec Association [3]: 0.45 nm
Binding Signal with 30 sec Association [4]: 0.05 nm
Binding Signal with 300 sec Association [4]: 0.43 nm
Kd [5]: 2.99 nM
koff [5]: 0.000125 s⁻¹
kon [5]: 42000 M⁻¹ s⁻¹
t1/2 [5]: 92 min
Kd [6]: 2.63 nM
koff [6]: 0.000245 s⁻¹
kon [6]: 93000 M⁻¹ s⁻¹
t1/2 [6]: 47 min
Reduction in Signal from Heparin at 30 sec [7]: 0.28 nm
Reduction in Signal from Heparin at 300 sec [7]: 0.02 nm
% blocked at maximum Ab tested (20 nM) [8]: 95%
IC50 [8]: < 0.025 nM

The next lines start with the values.

IC50 [M], inhibition of hGREM1-His, W-20-17/BRE-luc luciferase (100 pM hBMP4, 10 nM hGREM1-His) [1]: 8.1e-10 M
hGREM1-His Inhibition IC50, M; W-20-17 cell differentiation assay (alkaline phosphatase) [2]: 7.8 nM
Binding Signal with 30 sec Association [3]: 0.23 nm
Binding Signal with 300 sec Association [3]: 0.53 nm
Binding Signal with 30 sec Association [4]: 0.05 nm
Binding Signal with 300 sec Association [4]: 0.37 nm
Kd [5]: 4 nM
koff [5]: 0.000319 s⁻¹
kon [5]: 79700 M⁻¹ s⁻¹
t1/2 [5]: 36 min
Kd [6]: 9.75 nM
koff [6]: 0.00118 s⁻¹
kon [6]: 121000 M⁻¹ s⁻¹
t1/2 [6]: 10 min
Reduction in Signal from Heparin at 30 sec [7]: 0.18 nm
Reduction in Signal from Heparin at 300 sec [7]: 0.16 nm
% blocked at maximum Ab tested (20 nM) [8]: 60%
IC50 [8]: 0.65 nM
B3: H4H6240P (antibody, human IgG4, V domains shown)
VH: QVQLVESGGGVVQPGRSLRLSCAASGFTFSSYGMHWVRQAPGKGLEWVAVIWYDGSNKYYADSVKGRFIISRDNSKNMMYLQMNSLRAEDTAVYYCAREDNWNYAFDYWGQGTLVTVSS
VL: EIVMTQSPATLSVSPGERATLSCRASQSISSNLAWYQQKPGQAPRLLIYDSSTRATGIPARFSGSGSGTQFTLTISSLQSEDFALYYCQQYSNWPPFTFGPGTKVDIK
notes: H4H prefix = human IgG4 Fc

IC50 [M], inhibition of hGREM1-His, W-20-17/BRE-luc luciferase (100 pM hBMP4, 10 nM hGREM1-His) [1]: 4.1e-10 M
hGREM1-His Inhibition IC50, M; W-20-17 cell differentiation assay (alkaline phosphatase) [2]: 23 nM
Binding Signal with 30 sec Association [3]: 0.19 nm
Binding Signal with 300 sec Association [3]: 0.47 nm
Binding Signal with 30 sec Association [4]: 0.08 nm
Binding Signal with 300 sec Association [4]: 0.41 nm
Kd [5]: 1.88 nM
koff [5]: 0.000172 s⁻¹
kon [5]: 91300 M⁻¹ s⁻¹
t1/2 [5]: 67 min
Kd [6]: 3.26 nM
koff [6]: 0.000512 s⁻¹
kon [6]: 157000 M⁻¹ s⁻¹
t1/2 [6]: 23 min
Reduction in Signal from Heparin at 30 sec [7]: 0.11 nm
Reduction in Signal from Heparin at 300 sec [7]: 0.06 nm
% blocked at maximum Ab tested (20 nM) [8]: 66%
IC50 [8]: 0.69 nM
B4: H4H6233P (antibody, human IgG4, V domains shown)
VH: QVQLVESGGGVVQPGRSLRLSCAASGFTFSSYGMHWVRQAPGKGLEWVAVIWYDGSNYYYAASVKGRFTISRDNSENTLYLQMNRLRAEDTAVYYCAREGTGSTEDYFDYWGQGTLVTVSS
VL: EIVLTQSPATLSLSPGERATLSCRASQSVSSFLAWYQQKPGQAPRLLIYDASNRATGIPVRFSGSGSGTDFTLTISSLEPEDFAVYYCQQRSNWPPYTFGQGTKLEIK
notes: H4H prefix = human IgG4 Fc

IC50 [M], inhibition of hGREM1-His, W-20-17/BRE-luc luciferase (100 pM hBMP4, 10 nM hGREM1-His) [1]: 1.1e-09 M
hGREM1-His Inhibition IC50, M; W-20-17 cell differentiation assay (alkaline phosphatase) [2]: 22 nM
Binding Signal with 30 sec Association [3]: 0.13 nm
Binding Signal with 300 sec Association [3]: 0.41 nm
Binding Signal with 30 sec Association [4]: 0.02 nm
Binding Signal with 300 sec Association [4]: 0.33 nm
Kd [5]: 9.32 nM
koff [5]: 0.000225 s⁻¹
kon [5]: 24100 M⁻¹ s⁻¹
t1/2 [5]: 51 min
Kd [6]: 16.4 nM
koff [6]: 0.000931 s⁻¹
kon [6]: 56900 M⁻¹ s⁻¹
t1/2 [6]: 12 min
Reduction in Signal from Heparin at 30 sec [7]: 0.11 nm
Reduction in Signal from Heparin at 300 sec [7]: 0.08 nm
% blocked at maximum Ab tested (20 nM) [8]: 64%
IC50 [8]: 0.97 nM
B5: H4H6238P (antibody, human IgG4, V domains shown)
VH: QVQLVESGGGLVKPGGSLRLSCAASGFTFSDYYMSWIRQAPGKGLEWVSYIGTRGSSIYYADSLKGRFTISRDNAKNSLYLQMNSLRAEDTAVYYCARDPTGTSYFDYWGQGTLVTVSS
VL: not shown
notes: H4H prefix = human IgG4 Fc

IC50 [M], inhibition of hGREM1-His, W-20-17/BRE-luc luciferase (100 pM hBMP4, 10 nM hGREM1-His) [1]: 5.4e-10 M
hGREM1-His Inhibition IC50, M; W-20-17 cell differentiation assay (alkaline phosphatase) [2]: 5.9 nM
Binding Signal with 30 sec Association [3]: 0.3 nm
Binding Signal with 300 sec Association [3]: 0.47 nm
Binding Signal with 30 sec Association [4]: 0 nm
Binding Signal with 300 sec Association [4]: 0.21 nm
Kd [5]: 11.3 nM
koff [5]: 0.000178 s⁻¹
kon [5]: 15800 M⁻¹ s⁻¹
t1/2 [5]: 65 min
Kd [6]: 68.7 nM
koff [6]: 0.000484 s⁻¹
kon [6]: 7050 M⁻¹ s⁻¹
t1/2 [6]: 24 min
Reduction in Signal from Heparin at 30 sec [7]: 0.3 nm
Reduction in Signal from Heparin at 300 sec [7]: 0.26 nm
% blocked at maximum Ab tested (20 nM) [8]: 92%
IC50 [8]: < 0.025 nM
B7: H4H6243P (antibody, human IgG4, V domains shown)
VH: QVQLVQSGAEVKKPGASVKVSCKVSGYTLTELSMHWVRQAPGKGLEWMGGFDPEDGETIYAQKFQDRVTMTEDTSTDTAYMELSSLRSEDTAVYYCVTDDYEILPEYPYNMDVWGQGTTVTVSS
VL: DIQMTQSPSSLSASVGDRVTITCRASQSISTYLNWYQQKPGKAPKLLIYAASSLQSGVPSRFSGSGSGTDFTLTIRSLQPEDFATYYCQQSHITPFTFGPGTKVDIK
notes: H4H prefix = human IgG4 Fc

IC50 [M], inhibition of hGREM1-His, W-20-17/BRE-luc luciferase (100 pM hBMP4, 10 nM hGREM1-His) [1]: 7.8e-10 M
hGREM1-His Inhibition IC50, M; W-20-17 cell differentiation assay (alkaline phosphatase) [2]: 4.5 nM
Binding Signal with 30 sec Association [3]: 0.33 nm
Binding Signal with 300 sec Association [3]: 0.48 nm
Binding Signal with 30 sec Association [4]: 0.06 nm
Binding Signal with 300 sec Association [4]: 0.46 nm
Kd [5]: 1.25 nM
koff [5]: 9.6e-05 s⁻¹
kon [5]: 76800 M⁻¹ s⁻¹
t1/2 [5]: 120 min
Kd [6]: 1.73 nM
koff [6]: 0.000195 s⁻¹
kon [6]: 113000 M⁻¹ s⁻¹
t1/2 [6]: 59 min
Reduction in Signal from Heparin at 30 sec [7]: 0.27 nm
Reduction in Signal from Heparin at 300 sec [7]: 0.02 nm
% blocked at maximum Ab tested (20 nM) [8]: 93%
IC50 [8]: < 0.025 nM
B8: H4H6232P (antibody, human IgG4, V domains shown)
VH: QVQLVQSGAEVKKPGASVKVSCKVSGYTLTELSMHWVRQAPGKGLEWMGGFDPEDGETIYAQKFQGRLTMTEDTSTDTAYMELSSLRSEDTAVYYCATDDYDILTSYPYNMDVWGQGTTVTVSS
VL: DIQMTQSPSSLSASVGDRVTITCRASQSINNYLNWYQQKPGKAPKLLIYAASSLQSGVPSRFSGSGSGTDFTLTISSLQPEDFGTYYCQQSDSTPFTFGPGTKVDIK
notes: H4H prefix = human IgG4 Fc
